Data published in article PMC9482650, “Quantitative fragmentomics allow affinity mapping of interactomes” (Nature Communications, 2022).

Each binder was assayed against T1, APBA2_2, Q99767 (assay: holdup assay). Settings: plain residues with an end cap or a label only (N-terminal biotin on a linker: ado-ado).
T1 sequence (Q99767 654-744, limits assumed, looked up): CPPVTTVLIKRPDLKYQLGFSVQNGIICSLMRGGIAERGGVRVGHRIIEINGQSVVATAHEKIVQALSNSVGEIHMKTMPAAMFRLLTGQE
Design: key: below the threshold = too weak to quantify, mostly under pKd 3.1 to 4
LSEFKAMDSI [CTNNA1, P35221] was tested, and the pKd was “below the threshold”.

The binders below were run against T2, ARHGAP21, Q5T5U3 (assay: holdup assay). Settings: plain residues with an end cap or a label only (N-terminal biotin on a linker: ado-ado).
T2 sequence (Q5T5U3 45-169, limits assumed, looked up): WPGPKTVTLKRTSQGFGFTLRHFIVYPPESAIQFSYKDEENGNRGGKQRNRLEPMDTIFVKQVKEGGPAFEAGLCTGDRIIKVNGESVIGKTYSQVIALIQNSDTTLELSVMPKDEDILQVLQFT
Design: key: below the threshold = too weak to quantify, mostly under pKd 3.1 to 4
Binder LSEFKAMDSI [CTNNA1, P35221] has a pKd of 4.01.

The binders below were run against T3, CARD11, Q9BXL7 (assay: holdup assay). Settings: plain residues with an end cap or a label only (N-terminal biotin on a linker: ado-ado).
T3 sequence (Q9BXL7 662-765, limits assumed, looked up): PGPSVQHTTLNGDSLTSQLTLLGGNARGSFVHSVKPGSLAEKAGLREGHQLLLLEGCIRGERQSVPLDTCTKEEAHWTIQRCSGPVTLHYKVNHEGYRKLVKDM
Design: key: below the threshold = too weak to quantify, mostly under pKd 3.1 to 4
For LSEFKAMDSI [CTNNA1, P35221], the pKd was “below the threshold”.

Each binder was assayed against T4, DFNB31_1, Q9P202 (assay: holdup assay). Settings: plain residues with an end cap or a label only (N-terminal biotin on a linker: ado-ado).
T4 sequence (Q9P202 135-233, limits assumed, looked up): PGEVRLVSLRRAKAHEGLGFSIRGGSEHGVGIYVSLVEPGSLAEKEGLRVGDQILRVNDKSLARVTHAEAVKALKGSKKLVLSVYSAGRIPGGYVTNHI
Design: key: below the threshold = too weak to quantify, mostly under pKd 3.1 to 4
For LSEFKAMDSI [CTNNA1, P35221], the pKd was “below the threshold”.

What follows are binders tested against T5, DFNB31_2, Q9P202 (assay: holdup assay). Settings: plain residues with an end cap or a label only (N-terminal biotin on a linker: ado-ado).
T5 sequence (Q9P202 274-371, limits assumed, looked up): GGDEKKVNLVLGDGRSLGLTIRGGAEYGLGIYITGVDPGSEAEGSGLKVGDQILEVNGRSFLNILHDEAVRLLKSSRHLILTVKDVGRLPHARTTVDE
Design: key: below the threshold = too weak to quantify, mostly under pKd 3.1 to 4
In the case of LSEFKAMDSI [CTNNA1, P35221], the pKd is reported as “below the threshold”.

The binders below were run against T6, DFNB31_3, Q9P202 (assay: holdup assay). Settings: plain residues with an end cap or a label only (N-terminal biotin on a linker: ado-ado).
T6 sequence (Q9P202 811-907, limits assumed, looked up): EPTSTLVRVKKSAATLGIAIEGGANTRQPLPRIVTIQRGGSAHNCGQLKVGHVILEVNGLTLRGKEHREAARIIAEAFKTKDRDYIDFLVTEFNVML
Design: key: below the threshold = too weak to quantify, mostly under pKd 3.1 to 4
For LSEFKAMDSI [CTNNA1, P35221], the pKd was “below the threshold”.

Each binder was assayed against FRMPD4, Q14CM0 (assay: holdup assay). Settings: plain residues with an end cap or a label only (N-terminal biotin on a linker: ado-ado).
Chain of FRMPD4, Q14CM0 (Q14CM0 67-160): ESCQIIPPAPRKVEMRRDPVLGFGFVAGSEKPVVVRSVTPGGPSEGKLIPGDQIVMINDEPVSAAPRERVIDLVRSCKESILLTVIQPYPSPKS
Design: key: below the threshold = too weak to quantify, mostly under pKd 3.1 to 4
With LSEFKAMDSI [CTNNA1, P35221] the pKd was “below the threshold”.

What follows are binders tested against GIPC2, Q8TF65 (assay: holdup assay). Settings: plain residues with an end cap or a label only (N-terminal biotin on a linker: ado-ado).
Chain of GIPC2, Q8TF65 (Q8TF65 112-203): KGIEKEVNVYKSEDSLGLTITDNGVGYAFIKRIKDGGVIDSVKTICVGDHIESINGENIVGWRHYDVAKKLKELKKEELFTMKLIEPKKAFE
Design: key: below the threshold = too weak to quantify, mostly under pKd 3.1 to 4
LSEFKAMDSI [CTNNA1, P35221] was tested, and the pKd was “below the threshold”.

Each binder was assayed against T7, HTRA3, P83110 (assay: holdup assay). Settings: plain residues with an end cap or a label only (N-terminal biotin on a linker: ado-ado).
T7 sequence (P83110 354-453, limits assumed, looked up): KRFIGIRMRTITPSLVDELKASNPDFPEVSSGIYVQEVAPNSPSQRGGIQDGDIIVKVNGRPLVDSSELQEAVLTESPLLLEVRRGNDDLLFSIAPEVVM
Design: key: below the threshold = too weak to quantify, mostly under pKd 3.1 to 4
For LSEFKAMDSI [CTNNA1, P35221], the pKd was “below the threshold”.

What follows are binders tested against IL16_3, Q14005 (assay: holdup assay). Settings: plain residues with an end cap or a label only (N-terminal biotin on a linker: ado-ado).
Chain of IL16_3, Q14005 (Q14005 1107-1207): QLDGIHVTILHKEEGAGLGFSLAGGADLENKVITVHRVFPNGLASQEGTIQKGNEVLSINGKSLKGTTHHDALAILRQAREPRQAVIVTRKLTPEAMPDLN
Design: key: below the threshold = too weak to quantify, mostly under pKd 3.1 to 4
LSEFKAMDSI [CTNNA1, P35221] was tested, and the pKd was “below the threshold”.

Each binder was assayed against Inadl_10, Q8NI35 (assay: holdup assay). Settings: plain residues with an end cap or a label only (N-terminal biotin on a linker: ado-ado).
Chain of Inadl_10, Q8NI35 (Q8NI35 1673-1763): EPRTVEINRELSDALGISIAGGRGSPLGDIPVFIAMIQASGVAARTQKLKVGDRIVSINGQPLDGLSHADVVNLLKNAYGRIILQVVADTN
Design: key: below the threshold = too weak to quantify, mostly under pKd 3.1 to 4
LSEFKAMDSI [CTNNA1, P35221] was tested, and the pKd was “below the threshold”.

These binders were tested against Inadl_4, Q8NI35 (assay: holdup assay). Settings: plain residues with an end cap or a label only (N-terminal biotin on a linker: ado-ado).
Chain of Inadl_4, Q8NI35 (Q8NI35 547-651): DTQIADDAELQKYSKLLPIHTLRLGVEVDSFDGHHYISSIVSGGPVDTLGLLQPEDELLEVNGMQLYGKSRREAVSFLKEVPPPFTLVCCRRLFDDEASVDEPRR
Design: key: below the threshold = too weak to quantify, mostly under pKd 3.1 to 4
In the case of LSEFKAMDSI [CTNNA1, P35221], the pKd is reported as “below the threshold”.

The binders below were run against T8, LNX2_2, Q8N448 (assay: holdup assay). Settings: plain residues with an end cap or a label only (N-terminal biotin on a linker: ado-ado).
T8 sequence (Q8N448 334-432, limits assumed, looked up): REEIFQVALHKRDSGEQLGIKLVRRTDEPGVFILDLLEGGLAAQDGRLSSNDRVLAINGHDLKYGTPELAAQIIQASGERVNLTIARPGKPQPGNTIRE
Design: key: below the threshold = too weak to quantify, mostly under pKd 3.1 to 4
In the case of LSEFKAMDSI [CTNNA1, P35221], the pKd is reported as “below the threshold”.

What follows are binders tested against MAGI2_6, Q86UL8 (assay: holdup assay). Settings: plain residues with an end cap or a label only (N-terminal biotin on a linker: ado-ado).
Chain of MAGI2_6, Q86UL8 (Q86UL8 1141-1229): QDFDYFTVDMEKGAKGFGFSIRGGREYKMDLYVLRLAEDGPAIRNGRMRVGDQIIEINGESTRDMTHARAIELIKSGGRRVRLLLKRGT
Design: key: below the threshold = too weak to quantify, mostly under pKd 3.1 to 4
With LSEFKAMDSI [CTNNA1, P35221] the pKd was “below the threshold”.

The binders below were run against T9, MPDZ_12, O75970 (assay: holdup assay). Settings: plain residues with an end cap or a label only (N-terminal biotin on a linker: ado-ado).
T9 sequence (O75970 1857-1958, limits assumed, looked up): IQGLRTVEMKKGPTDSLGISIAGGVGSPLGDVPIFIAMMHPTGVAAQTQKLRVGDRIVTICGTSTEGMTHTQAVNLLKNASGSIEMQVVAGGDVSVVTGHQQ
Design: key: below the threshold = too weak to quantify, mostly under pKd 3.1 to 4
In the case of LSEFKAMDSI [CTNNA1, P35221], the pKd is reported as “below the threshold”.

Each binder was assayed against NHERF4_2, Q86UT5 (assay: holdup assay). Settings: plain residues with an end cap or a label only (N-terminal biotin on a linker: ado-ado).
Chain of NHERF4_2, Q86UT5 (Q86UT5 220-308): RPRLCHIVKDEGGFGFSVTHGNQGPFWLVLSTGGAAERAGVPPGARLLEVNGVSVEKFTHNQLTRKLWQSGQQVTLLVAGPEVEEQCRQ
Design: key: below the threshold = too weak to quantify, mostly under pKd 3.1 to 4
LSEFKAMDSI [CTNNA1, P35221] was tested, and the pKd was “below the threshold”.

Each binder was assayed against NOS1, P29475 (assay: holdup assay). Settings: plain residues with an end cap or a label only (N-terminal biotin on a linker: ado-ado).
Chain of NOS1, P29475 (P29475 9-101): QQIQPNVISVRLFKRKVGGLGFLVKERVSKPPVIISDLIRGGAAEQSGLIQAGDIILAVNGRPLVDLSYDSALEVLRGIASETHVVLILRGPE
Design: key: below the threshold = too weak to quantify, mostly under pKd 3.1 to 4
For LSEFKAMDSI [CTNNA1, P35221], the pKd was “below the threshold”.

What follows are binders tested against PICK1, Q9NRD5 (assay: holdup assay). Settings: plain residues with an end cap or a label only (N-terminal biotin on a linker: ado-ado).
Chain of PICK1, Q9NRD5 (Q9NRD5 17-115): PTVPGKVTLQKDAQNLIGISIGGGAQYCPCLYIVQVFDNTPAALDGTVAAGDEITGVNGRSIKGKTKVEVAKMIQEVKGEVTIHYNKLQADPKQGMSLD
Design: key: below the threshold = too weak to quantify, mostly under pKd 3.1 to 4
LSEFKAMDSI [CTNNA1, P35221] was tested, and the pKd was 4.08.

What follows are binders tested against PTPN3, P26045 (assay: holdup assay). Settings: plain residues with an end cap or a label only (N-terminal biotin on a linker: ado-ado).
Chain of PTPN3, P26045 (P26045 505-587): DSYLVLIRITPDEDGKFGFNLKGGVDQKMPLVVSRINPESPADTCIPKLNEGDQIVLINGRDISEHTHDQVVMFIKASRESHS
Design: key: below the threshold = too weak to quantify, mostly under pKd 3.1 to 4
Work on LSEFKAMDSI [CTNNA1, P35221] yielded a pKd of 3.97.

Each binder was assayed against T10, RAPGEF6, Q8TEU7 (assay: holdup assay). Settings: plain residues with an end cap or a label only (N-terminal biotin on a linker: ado-ado).
T10 sequence (Q8TEU7 525-625, limits assumed, looked up): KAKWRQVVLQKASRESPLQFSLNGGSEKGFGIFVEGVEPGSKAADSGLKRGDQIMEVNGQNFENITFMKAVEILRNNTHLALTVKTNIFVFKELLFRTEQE
Design: key: below the threshold = too weak to quantify, mostly under pKd 3.1 to 4
In the case of LSEFKAMDSI [CTNNA1, P35221], the pKd is reported as “below the threshold”.

Each binder was assayed against SCRIB_1, Q14160 (assay: holdup assay). Settings: plain residues with an end cap or a label only (N-terminal biotin on a linker: ado-ado).
Chain of SCRIB_1, Q14160 (Q14160 718-814): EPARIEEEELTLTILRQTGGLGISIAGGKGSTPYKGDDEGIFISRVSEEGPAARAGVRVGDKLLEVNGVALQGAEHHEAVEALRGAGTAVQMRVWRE
Design: key: below the threshold = too weak to quantify, mostly under pKd 3.1 to 4
With LSEFKAMDSI [CTNNA1, P35221] the pKd was “below the threshold”.

What follows are binders tested against T11, SNTB1, Q13884 (assay: holdup assay). Settings: plain residues with an end cap or a label only (N-terminal biotin on a linker: ado-ado).
T11 sequence (Q13884 107-205, limits assumed, looked up): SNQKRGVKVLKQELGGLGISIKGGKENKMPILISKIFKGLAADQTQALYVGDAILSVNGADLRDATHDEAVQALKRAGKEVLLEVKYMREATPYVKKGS
Design: key: below the threshold = too weak to quantify, mostly under pKd 3.1 to 4
With LSEFKAMDSI [CTNNA1, P35221] the pKd was “below the threshold”.

Each binder was assayed against T12, SNTG1, Q9NSN8 (assay: holdup assay). Settings: plain residues with an end cap or a label only (N-terminal biotin on a linker: ado-ado).
T12 sequence (Q9NSN8 52-150, limits assumed, looked up): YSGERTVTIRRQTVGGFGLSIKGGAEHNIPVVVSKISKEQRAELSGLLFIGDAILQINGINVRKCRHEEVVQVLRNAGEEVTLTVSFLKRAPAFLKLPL
Design: key: below the threshold = too weak to quantify, mostly under pKd 3.1 to 4
In the case of LSEFKAMDSI [CTNNA1, P35221], the pKd is reported as “below the threshold”.

Each binder was assayed against SNX27, Q96L92 (assay: holdup assay). Settings: plain residues with an end cap or a label only (N-terminal biotin on a linker: ado-ado).
Design: key: below the threshold = too weak to quantify, mostly under pKd 3.1 to 4
For LSEFKAMDSI [CTNNA1, P35221], the pKd was “below the threshold”.

The binders below were run against T13, TJP3_3, O95049 (assay: holdup assay). Settings: plain residues with an end cap or a label only (N-terminal biotin on a linker: ado-ado).
T13 sequence (O95049 375-456, limits assumed, looked up): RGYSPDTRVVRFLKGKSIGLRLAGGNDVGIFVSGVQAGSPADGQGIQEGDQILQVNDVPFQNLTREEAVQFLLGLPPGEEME
Design: key: below the threshold = too weak to quantify, mostly under pKd 3.1 to 4
For LSEFKAMDSI [CTNNA1, P35221], the pKd was “below the threshold”.
